From paper PMC9482650, “Quantitative fragmentomics allow affinity mapping of interactomes” (Nature Communications, 2022)

Columns and labels:
Assay in all cases: holdup assay
Design in all cases: key: below the threshold = too weak to quantify, mostly under pKd 3.1 to 4
Conditions in all cases: plain residues with an end cap or a label only (N-terminal biotin on a linker: ttds)
FRMPD3, Q5JV73 = molecular target: FRMPD3, Q5JV73
MAGI2_3, Q86UL8 = molecular target: MAGI2_3, Q86UL8
MPDZ_5, O75970 = molecular target: T1, MPDZ_5, O75970
T1 sequence (O75970 695-796, limits assumed, looked up): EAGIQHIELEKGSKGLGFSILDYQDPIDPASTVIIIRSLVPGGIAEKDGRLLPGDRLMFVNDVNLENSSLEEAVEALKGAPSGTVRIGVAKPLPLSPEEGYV

PDZD7_3, Q9H5P4 = molecular target: T2, PDZD7_3, Q9H5P4
T2 sequence (Q9H5P4 857-944, limits assumed, looked up): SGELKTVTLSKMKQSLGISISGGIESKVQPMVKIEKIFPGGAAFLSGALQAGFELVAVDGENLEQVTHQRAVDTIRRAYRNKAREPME

PTPN3, P26045 = molecular target: PTPN3, P26045
SHANK1, Q9Y566 = molecular target: T3, SHANK1, Q9Y566
T3 sequence (Q9Y566 658-767, limits assumed, looked up): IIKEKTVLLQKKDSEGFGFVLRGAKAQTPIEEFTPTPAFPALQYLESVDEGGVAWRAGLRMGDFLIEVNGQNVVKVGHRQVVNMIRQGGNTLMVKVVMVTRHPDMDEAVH

LNX1_3, Q8TBB1 = molecular target: LNX1_3, Q8TBB1
DFNB31_3, Q9P202 = molecular target: T4, DFNB31_3, Q9P202
T4 sequence (Q9P202 811-907, limits assumed, looked up): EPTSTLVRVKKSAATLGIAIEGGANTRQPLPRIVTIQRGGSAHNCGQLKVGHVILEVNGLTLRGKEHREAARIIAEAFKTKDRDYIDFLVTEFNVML

GRIP1_5, Q9Y3R0 = molecular target: T5, GRIP1_5, Q9Y3R0
T5 sequence (Q9Y3R0 568-668, limits assumed, looked up): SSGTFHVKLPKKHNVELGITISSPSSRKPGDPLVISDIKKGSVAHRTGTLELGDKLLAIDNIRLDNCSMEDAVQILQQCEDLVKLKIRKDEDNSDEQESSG

PARD3B_1, Q8TEW8 = molecular target: T6, PARD3B_1, Q8TEW8
T6 sequence (Q8TEW8 196-299, limits assumed, looked up): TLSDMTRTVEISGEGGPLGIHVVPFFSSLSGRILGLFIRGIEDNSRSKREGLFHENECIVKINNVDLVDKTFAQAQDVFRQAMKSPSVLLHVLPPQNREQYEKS

SIPA1L2, Q9P2F8 = molecular target: T7, SIPA1L2, Q9P2F8
T7 sequence (Q9P2F8 945-1036, limits assumed, looked up): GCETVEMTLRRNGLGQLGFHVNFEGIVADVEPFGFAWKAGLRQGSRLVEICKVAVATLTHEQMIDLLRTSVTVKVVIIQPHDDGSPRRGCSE

Inadl_6, Q8NI35 = molecular target: Inadl_6, Q8NI35
NHERF4_2, Q86UT5 = molecular target: NHERF4_2, Q86UT5
GRIP1_4, Q9Y3R0 = molecular target: T8, GRIP1_4, Q9Y3R0
T8 sequence (Q9Y3R0 467-571, limits assumed, looked up): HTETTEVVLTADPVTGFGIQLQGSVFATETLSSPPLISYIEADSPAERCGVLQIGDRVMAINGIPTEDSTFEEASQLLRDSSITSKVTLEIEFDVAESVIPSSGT

FRMPD4, Q14CM0 = molecular target: FRMPD4, Q14CM0
FRMPD1, Q5SYB0 = molecular target: T9, FRMPD1, Q5SYB0
T9 sequence (Q5SYB0 52-145, limits assumed, looked up): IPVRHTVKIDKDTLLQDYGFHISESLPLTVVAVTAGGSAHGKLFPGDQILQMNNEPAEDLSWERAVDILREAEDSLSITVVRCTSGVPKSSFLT

Inadl_1, Q8NI35 = molecular target: Inadl_1, Q8NI35
LNX2_2, Q8N448 = molecular target: T10, LNX2_2, Q8N448
T10 sequence (Q8N448 334-432, limits assumed, looked up): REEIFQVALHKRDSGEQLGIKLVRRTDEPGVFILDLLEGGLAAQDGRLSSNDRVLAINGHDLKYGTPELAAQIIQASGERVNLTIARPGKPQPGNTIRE

PDZRN4_1, Q6ZMN7 = molecular target: PDZRN4_1, Q6ZMN7
PDLIM1, O00151 = molecular target: PDLIM1, O00151
APBA1_2, Q02410 = molecular target: T11, APBA1_2, Q02410
T11 sequence (Q02410 742-832, limits assumed, looked up): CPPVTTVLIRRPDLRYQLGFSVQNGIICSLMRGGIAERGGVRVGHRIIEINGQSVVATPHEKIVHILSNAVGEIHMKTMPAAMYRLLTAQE

DLG2_3, Q15700 = molecular target: DLG2_3, Q15700
MAGI3_2, Q5TCQ9 = molecular target: MAGI3_2, Q5TCQ9
NOS1, P29475 = molecular target: NOS1, P29475
Inadl_10, Q8NI35 = molecular target: Inadl_10, Q8NI35
FRMPD2_1, Q68DX3 = molecular target: FRMPD2_1, Q68DX3
Inadl_4, Q8NI35 = molecular target: Inadl_4, Q8NI35
Chain of Inadl_4, Q8NI35 (Q8NI35 547-651): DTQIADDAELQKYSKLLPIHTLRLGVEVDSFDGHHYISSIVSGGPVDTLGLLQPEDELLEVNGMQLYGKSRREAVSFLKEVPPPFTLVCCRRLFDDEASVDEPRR

Chain of PDZRN4_1, Q6ZMN7 (Q6ZMN7 213-318): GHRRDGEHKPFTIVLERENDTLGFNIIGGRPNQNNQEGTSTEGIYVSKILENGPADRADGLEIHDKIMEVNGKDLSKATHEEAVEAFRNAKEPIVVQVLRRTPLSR
Chain of NOS1, P29475 (P29475 9-101): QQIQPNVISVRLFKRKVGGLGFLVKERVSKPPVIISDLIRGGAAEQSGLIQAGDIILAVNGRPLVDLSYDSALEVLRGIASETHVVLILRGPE
Chain of MAGI3_2, Q5TCQ9 (Q5TCQ9 398-503): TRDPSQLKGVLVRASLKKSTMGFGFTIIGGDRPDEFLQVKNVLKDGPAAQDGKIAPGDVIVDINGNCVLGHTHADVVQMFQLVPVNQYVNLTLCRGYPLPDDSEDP
Chain of MAGI2_3, Q86UL8 (Q86UL8 600-682): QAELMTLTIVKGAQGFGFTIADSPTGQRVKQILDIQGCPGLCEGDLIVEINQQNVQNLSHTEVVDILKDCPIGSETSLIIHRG
Chain of LNX1_3, Q8TBB1 (Q8TBB1 500-596): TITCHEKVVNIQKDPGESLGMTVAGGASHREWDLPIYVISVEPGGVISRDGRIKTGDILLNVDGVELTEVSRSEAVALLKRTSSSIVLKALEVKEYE
Chain of Inadl_1, Q8NI35 (Q8NI35 113-229): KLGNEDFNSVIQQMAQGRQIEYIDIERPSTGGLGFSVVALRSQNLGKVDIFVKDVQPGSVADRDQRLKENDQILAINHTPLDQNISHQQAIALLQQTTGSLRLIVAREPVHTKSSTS
Chain of PTPN3, P26045 (P26045 505-587): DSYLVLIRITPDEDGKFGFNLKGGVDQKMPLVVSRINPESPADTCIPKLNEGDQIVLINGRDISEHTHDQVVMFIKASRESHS
Chain of FRMPD4, Q14CM0 (Q14CM0 67-160): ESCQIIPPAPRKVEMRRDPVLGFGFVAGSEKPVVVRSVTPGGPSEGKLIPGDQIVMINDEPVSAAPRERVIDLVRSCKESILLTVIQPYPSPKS
Chain of PDLIM1, O00151 (O00151 1-87): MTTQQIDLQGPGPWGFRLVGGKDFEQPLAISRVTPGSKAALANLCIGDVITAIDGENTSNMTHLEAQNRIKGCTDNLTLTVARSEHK
Chain of Inadl_6, Q8NI35 (Q8NI35 1058-1167): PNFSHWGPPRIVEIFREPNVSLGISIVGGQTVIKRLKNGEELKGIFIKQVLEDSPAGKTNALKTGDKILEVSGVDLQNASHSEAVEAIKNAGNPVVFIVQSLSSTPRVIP
Chain of FRMPD3, Q5JV73 (Q5JV73 12-100): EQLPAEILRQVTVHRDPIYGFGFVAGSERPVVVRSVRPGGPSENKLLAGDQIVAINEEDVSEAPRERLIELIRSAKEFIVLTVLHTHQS
Chain of FRMPD2_1, Q68DX3 (Q68DX3 770-861): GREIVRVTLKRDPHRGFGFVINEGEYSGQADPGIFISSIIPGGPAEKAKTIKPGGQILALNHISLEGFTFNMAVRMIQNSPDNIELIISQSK
Chain of NHERF4_2, Q86UT5 (Q86UT5 220-308): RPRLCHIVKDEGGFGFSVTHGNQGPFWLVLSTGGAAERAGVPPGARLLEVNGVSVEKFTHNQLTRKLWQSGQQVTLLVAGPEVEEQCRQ
Chain of Inadl_10, Q8NI35 (Q8NI35 1673-1763): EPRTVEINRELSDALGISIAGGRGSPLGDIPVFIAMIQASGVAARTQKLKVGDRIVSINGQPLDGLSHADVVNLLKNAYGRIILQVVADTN

| Binder | pKd (FRMPD3, Q5JV73) | pKd (MAGI2_3, Q86UL8) | pKd (MPDZ_5, O75970) | pKd (PDZD7_3, Q9H5P4) | pKd (PTPN3, P26045) | pKd (SHANK1, Q9Y566) | pKd (LNX1_3, Q8TBB1) | pKd (DFNB31_3, Q9P202) | pKd (GRIP1_5, Q9Y3R0) | pKd (PARD3B_1, Q8TEW8) | pKd (SIPA1L2, Q9P2F8) | pKd (Inadl_6, Q8NI35) | pKd (NHERF4_2, Q86UT5) | pKd (GRIP1_4, Q9Y3R0) | pKd (FRMPD4, Q14CM0) | pKd (FRMPD1, Q5SYB0) | pKd (Inadl_1, Q8NI35) | pKd (LNX2_2, Q8N448) | pKd (PDZRN4_1, Q6ZMN7) | pKd (PDLIM1, O00151) | further results |
| --- | --- | --- | --- | --- | --- | --- | --- | --- | --- | --- | --- | --- | --- | --- | --- | --- | --- | --- | --- | --- | --- |
| DKDPHSETAL [TMIGD1, Q6UXZ0] | 3.53 | 3.52 | below the threshold | 4.07 | 5.02 | 4.42 | below the threshold | below the threshold | below the threshold | below the threshold | below the threshold | 3.53 | below the threshold | below the threshold | 4.34 | below the threshold | below the threshold | below the threshold | 4.64 | below the threshold | pKd (APBA1_2, Q02410): 3.65; pKd (DLG2_3, Q15700): below the threshold; pKd (MAGI3_2, Q5TCQ9): 4.19; pKd (NOS1, P29475): 3.86; pKd (Inadl_10, Q8NI35): below the threshold; pKd (FRMPD2_1, Q68DX3): below the threshold; pKd (Inadl_4, Q8NI35): below the threshold |
| QRQARSETLV [HPV59-E6, Q81964] | below the threshold | 4.73 | 3.81 | 4.72 | 4.4 | below the threshold | below the threshold | below the threshold | below the threshold | below the threshold | below the threshold | below the threshold | below the threshold | below the threshold | below the threshold | below the threshold | below the threshold | 5.04 | 4.04 | below the threshold | pKd (APBA1_2, Q02410): below the threshold; pKd (DLG2_3, Q15700): 4.84; pKd (MAGI3_2, Q5TCQ9): 6.07; pKd (NOS1, P29475): 4.26; pKd (Inadl_10, Q8NI35): below the threshold; pKd (FRMPD2_1, Q68DX3): below the threshold; pKd (Inadl_4, Q8NI35): below the threshold |
| SKPTRRETEV [HPV35-E6, P27228] | below the threshold | below the threshold | below the threshold | 4.3 | 4.93 | below the threshold | below the threshold | below the threshold | below the threshold | below the threshold | below the threshold | below the threshold | below the threshold | below the threshold | below the threshold | below the threshold | below the threshold | below the threshold | 4.38 | below the threshold | pKd (APBA1_2, Q02410): below the threshold; pKd (DLG2_3, Q15700): 5.31; pKd (MAGI3_2, Q5TCQ9): 5.39; pKd (NOS1, P29475): 3.74; pKd (Inadl_10, Q8NI35): below the threshold; pKd (FRMPD2_1, Q68DX3): 3.49; pKd (Inadl_4, Q8NI35): below the threshold |
